Data on one molecule can be found in patent US20120231024A1 (UNIVERSIT TSKLINIKUM FREIBURG, published 2012).

This assay addresses T1, prostate specific membrane antigen (PSMA), native, on the cell surface (human, UniProt Q04609 1-750).
T1 construct: whole, on cells; also called cell-surface PSMA; native PSMA
Briefly: flow cytometry saturation curve on LNCaP cells; concentration at 50% saturation of PSMA sites.

T1 sequence (Q04609 whole entry): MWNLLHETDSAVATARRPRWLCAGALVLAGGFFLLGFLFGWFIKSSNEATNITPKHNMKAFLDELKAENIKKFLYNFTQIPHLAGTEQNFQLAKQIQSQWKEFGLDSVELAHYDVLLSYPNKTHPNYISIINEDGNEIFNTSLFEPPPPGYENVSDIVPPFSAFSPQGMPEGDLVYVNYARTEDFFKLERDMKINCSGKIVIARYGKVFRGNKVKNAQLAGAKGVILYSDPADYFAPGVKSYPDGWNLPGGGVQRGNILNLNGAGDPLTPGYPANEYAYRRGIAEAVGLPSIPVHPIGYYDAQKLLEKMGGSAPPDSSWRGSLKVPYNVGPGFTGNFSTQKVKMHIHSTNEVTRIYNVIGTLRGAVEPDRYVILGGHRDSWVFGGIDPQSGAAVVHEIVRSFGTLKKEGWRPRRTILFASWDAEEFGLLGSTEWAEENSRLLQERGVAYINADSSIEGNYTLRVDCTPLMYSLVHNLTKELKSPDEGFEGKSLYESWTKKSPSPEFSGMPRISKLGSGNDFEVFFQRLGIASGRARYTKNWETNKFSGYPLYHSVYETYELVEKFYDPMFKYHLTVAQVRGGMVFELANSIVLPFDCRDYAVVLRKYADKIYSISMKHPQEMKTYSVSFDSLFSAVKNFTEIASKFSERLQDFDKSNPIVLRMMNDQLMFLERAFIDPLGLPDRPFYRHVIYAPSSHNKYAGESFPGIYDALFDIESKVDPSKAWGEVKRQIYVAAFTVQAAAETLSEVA
Method: The binding properties of the isolated monoclonal antibodies or an antigen binding portion thereof to the native PSMA were compared by treating LNCAP cells with increasing concentrations of the first step anti-PSMA Ab followed by incubation with the second step PE-labeled antibody. From the resulting saturation curves the antibody concentration reaching 50% saturation of PSMA sites can be read.

B1: scFv A5 (scFv)
scFv: MADVKLVESGGGLVKPGESLKLSCIASGFTFSDYYMYWVRQTPEKRLEWVAIISDGGYYTYYSDIIKGRFTISRDNAKNNLYLQMSSLKSEDTAMYYCTRGFPLLRHGAMDYWGLGTSVTVSSTKTTPKLEEGEFSEARVDIQMTQSPKFMSTSVGDRVSVTCKASQNVDTNVAWYQQKPGQSPKALIYSASYRYSDVPDRFTGSESGTDFTLTISNVQSEDLAEYFCQQYDSYPYTFGGGTKLEIKRADAAA
notes: also called scFv AS [sic]
Usually EC50 stands for the concentration giving half of the maximal effect. The molecule B1 yielded an EC50 of 60 nM.
